Measured values published in US20030148447A1 (ZymoGenetics, published 2003).

Tests used:
[1] = target: factor present in the activated CD3+ selected human T-cell conditioned media; assay: cell-based or functional assay
[2] = target: factor present in the activated monkey spleen conditioned media; assay: cell-based or functional assay

inhibition of conditioned-medium-driven BaF3/Zalpha11 cell growth; soluble receptor concentration giving complete inhibition [1] [µg/mL] | titration of soluble receptor; lowest concentration completely inhibiting BaF3/Zalpha11 growth [1] [ng/mL] | inhibition of conditioned-medium-driven BaF3/Zalpha11 cell growth; soluble receptor concentration giving complete inhibition [2] [µg/mL] | titration of soluble receptor; lowest concentration completely inhibiting BaF3/Zalpha11 growth [2] [ng/mL] | Binder
10 | 20 | 10 | 20 | zalpha11CFLG soluble receptor (zalpha11 extracellular domain with C-terminal FLAG tag) (receptor, first Trp of the WSXWS motif C-mannosylated in ~35% of molecules (BHK)) not shown
10 | 20 | 10 | 20 | zalpha11CEE soluble receptor (zalpha11 extracellular domain with C-terminal Glu-Glu tag) (receptor, first Trp of the WSXWS motif C-mannosylated in ~46% of molecules (BHK)) not shown
